Experimental data: PMC6620098 (Science Advances, 2019)

B1: Elp2 (endogenous, in the Elp123 subcomplex) (natural protein, UniProt P42935 1-788, looked up)
chain: MVECITPEAIFIGANKQTQVSDIHKVKKIVAFGAGKTIALWDPIEPNNKGVYATLKGHEAEVTCVRFVPDSDFMVSASEDHHVKIWKFTDYSHLQCIQTIQHYSKTIVALSALPSLISVGCADGTISIWRQNIQNDEFGLAHEFTIKKGFFYPLCLSLSKVEEKKYLLAIGGTNVNVFIASFILSDSGIEKCRVVAELEGHEDWVKSLAFRHQETPGDYLLCSGSQDRYIRLWRIRINDLIDDSEEDSKKLTLLSNKQYKFQIDDELRVGINFEALIMGHDDWISSLQWHESRLQLLAATADTSLMVWEPDETSGIWVCSLRLGEMSSKGASTATGSSGGFWSCLWFTHERMDFFLTNGKTGSWRMWATKDNIICDQRLGISGATKDVTDIAWSPSGEYLLATSLDQTTRLFAPWIYDASGRKREIATWHEFSRPQIHGYDMICVETVTDTRFVSGGDEKILRSFDLPKGVAGMLQKFVGIQFEEKSEMPDSATVPVLGLSNKAGEDDANEDDEEEEGGNKETPDITDPLSLLECPPMEDQLQRHLLWPEVEKLYGHGFEITCLDISPDQKLIASACRSNNVQNAVIRIFSTENWLEIKPALPFHSLTITRLKFSKDGKFLLSVCRDRKWALWERNMEDNTFELRFKNEKPHTRIIWDADWAPLEFGNVFVTASRDKTVKVWRHQKEPADDYVLEASIKHTKAVTAISIHDSMIREKILISVGLENGEIYLYSYTLGKFELITQLNEDITPADKITRLRWSHLKRNGKLFLGVGSSDLSTRIYSLAYE
B2: Elp1-3xFLAG (endogenous, in the Elp123 subcomplex) (natural protein, S. cerevisiae, UniProt Q06706 1-1349, looked up)
chain: MVEHDKSGSKRQELRSNMRNLITLNKGKFKPTASTAEGDEDDLSFTLLDSVFDTLSDSITCVLGSTDIGAIEVQQFMKDGSRNVLASFNIQTFDDKLLSFVHFADINQLVFVFEQGDIITATYDPVSLDPAETLIEIMGTIDNGIAAAQWSYDEETLAMVTKDRNVVVLSKLFEPISEYHLEVDDLKISKHVTVGWGKKETQFRGKGARAMEREALASLKASGLVGNQLRDPTMPYMVDTGDVTALDSHEITISWRGDCDYFAVSSVEEVPDEDDETKSIKRRAFRVFSREGQLDSASEPVTGMEHQLSWKPQGSLIASIQRKTDLGEEDSVDVIFFERNGLRHGEFDTRLPLDEKVESVCWNSNSEALAVVLANRIQLWTSKNYHWYLKQELYASDISYVKWHPEKDFTLMFSDAGFINIVDFAYKMAQGPTLEPFDNGTSLVVDGRTVNITPLALANVPPPMYYRDFETPGNVLDVACSFSNEIYAAINKDVLIFAAVPSIEEMKKGKHPSIVCEFPKSEFTSEVDSLRQVAFINDSIVGVLLDTDNLSRIALLDIQDITQPTLITIVEVYDKIVLLRSDFDYNHLVYETRDGTVCQLDAEGQLMEITKFPQLVRDFRVKRVHNTSAEDDDNWSAESSELVAFGITNNGKLFANQVLLASAVTSLEITDSFLLFTTAQHNLQFVHLNSTDFKPLPLVEEGVEDERVRAIERGSILVSVIPSKSSVVLQATRGNLETIYPRIMVLAEVRKNIMAKRYKEAFIVCRTHRINLDILHDYAPELFIENLEVFINQIGRVDYLNLFISCLSEDDVTKTKYKETLYSGISKSFGMEPAPLTEMQIYMKKKMFDPKTSKVNKICDAVLNVLLSNPEYKKKYLQTIITAYASQNPQNLSAALKLISELENSEEKDSCVTYLCFLQDVNVVYKSALSLYDVSLALLVAQKSQMDPREYLPFLQELQDNEPLRRKFLIDDYLGNYEKALEHLSEIDKDGNVSEEVIDYVESHDLYKHGLALYRYDSEKQNVIYNIYAKHLSSNQMYTDAAVAYEMLGKLKEAMGAYQSAKRWREAMSIAVQKFPEEVESVAEELISSLTFEHRYVDAADIQLEYLDNVKEAVALYCKAYRYDIASLVAIKAKKDELLEEVVDPGLGEGFGIIAELLADCKGQINSQLRRLRELRAKKEENPYAFYGQETEQADDVSVAPSETSTQESFFTRYTGKTGGTAKTGASRRTAKNKRREERKRARGKKGTIYEEEYLVQSVGRLIERLNQTKPDAVRVVEGLCRRNMREQAHQIQKNFVEVLDLLKANVKEIYSISEKDRERVNENGEVYYIPEIPVPEIHDFPKSHIVDF

Assays:
Assay in all cases: cryo-EM structure
[1] = target: B1
[2] = target: B2
cryo-EM structure = target: the molecule itself

binding result [1]	binding result [2]	Binder	stoichiometry N (cryo-EM structure)
binds	binds	Elp3 (endogenous, in the Elp123 subcomplex) (enzyme, UniProt Q02908 1-557, looked up) MARHGKGPKTNKKKLAPEKERFIQCCADITLELTDSLTSGTTREINLNGLITKYSKKYKLKQQPRLTDIINSIPDQYKKYLLPKLKAKPVRTASGIAVVAVMCKPHRCPHIAYTGNICVYCPGGPDSDFEYSTQSYTGYEPTSMRAIRARYDPYEQARGRVEQLKQLGHSIDKVEYVLMGGTFMSLPKEYREDFIVKLHNALSGFNGNDIDEAILYSQQSLTKCVGITIETRPDYCTQTHLDDMLKYGCTRLEIGVQSLYEDVARDTNRGHTVRSVCETFAVSKDAGYKVVSHMMPDLPNVGMERDIEQFKEYFENPDFRTDGLKIYPTLVIRGTGLYELWKTGRYKSYSANALVDLVARILALVPPWTRIYRVQRDIPMPLVTSGVDNGNLRELALARMKDLGTTCRDVRTREVGIQEVHHKVQPDQVELIRRDYYANGGWETFLSYEDPKKDILIGLLRLRKASKKYTYRKEFTSQRTSIVRELHVYGSVVPLHSRDPRKFQHQGFGTLLMEEAERIAKEEHGSEKISVISGVGVRNYYGKLGYELDGPYMSKRI	
	binds	B1	
		B2	2
